The values below come from article PMC6368608.

In assay [1] the target is CH106 (human). The assay can be described thus: BLI; […] (AHC) […]; 1:1 model; […]. In general terms: In BLI a coated tip is dipped into the sample, and binding shifts an interference pattern.
In assay [2] the target is UCA-P14S (human). The assay is described as follows: BLI; […] (AHC) […]; 1:1 model; […].
Assay [3] deals with UCA-S30G (human). The assay is described as follows: BLI; […] (AHC) […]; 1:1 model; […].
Assay [4] addresses UCA-S30G/S31G (human). The assay can be described thus: BLI; […] (AHC) […]; 1:1 model; […].
The target in assay [5] is CH103 (human). The assay can be described thus: BLI; […] (AHC) […]; 1:1 model; […].
Sequence of CH103 (human) (heavy, as listed by the source, chain 1 of 2): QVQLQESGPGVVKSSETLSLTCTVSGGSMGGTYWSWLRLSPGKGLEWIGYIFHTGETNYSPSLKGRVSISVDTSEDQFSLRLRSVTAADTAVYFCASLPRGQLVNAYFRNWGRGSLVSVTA
Sequence of CH103 (human) (light, as listed by the source, chain 2 of 2): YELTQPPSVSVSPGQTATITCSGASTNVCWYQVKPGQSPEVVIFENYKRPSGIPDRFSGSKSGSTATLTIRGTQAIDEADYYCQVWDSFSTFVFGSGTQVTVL
Assay [6] has as its target CH103 UCA (human). The assay can be described thus: BLI; […] (AHC) […]; 1:1 model; […].
For assay [7], the target named is I4-S14P/G30S (human). The assay is described as follows: BLI; […] (AHC) […]; 1:1 model; […].
The target of assay [8] is CH103-S14P/G30S (human). The assay can be described thus: BLI; […] (AHC) […]; 1:1 model; […].
Sequence of CH103-S14P/G30S (human) (heavy, as listed by the source, chain 1 of 2): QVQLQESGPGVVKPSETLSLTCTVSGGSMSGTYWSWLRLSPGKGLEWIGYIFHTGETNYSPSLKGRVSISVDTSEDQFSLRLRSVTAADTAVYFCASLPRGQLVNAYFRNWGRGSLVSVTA
The target of assay [9] is C.CH505TF SOSIP.664.v4.1 (HIV-1 (C.CH505 transmitted/founder)).
Assay [10] concerns the target C.CH505TF gp120 (HIV-1 clade C, CH505 transmitted/founder) (UniProt M4M0W3). The assay is described as follows: SPR. A general note: In SPR one partner is held on a chip, and binding of the other changes the refractive index at the surface.
In assay [11] the target is CH106 (human). The assay can be described thus: SPR.
Assay [12] has as its target CH103 lineage intermediate I3 (human). The assay can be described thus: SPR.
Assay [13] addresses CH103 (human). The assay can be described thus: SPR.
Assay [14] deals with CH103 lineage intermediate I8 (human). The assay can be described thus: SPR.
Assay [15] deals with CH103-S14P (human). The assay is described as follows: SPR.
Sequence of CH103-S14P (human) (heavy, as listed by the source, chain 1 of 2): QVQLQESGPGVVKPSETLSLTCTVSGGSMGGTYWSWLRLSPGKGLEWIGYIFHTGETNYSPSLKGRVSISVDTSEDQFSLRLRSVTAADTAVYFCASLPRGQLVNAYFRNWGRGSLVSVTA
The target in assay [16] is CH103-S14P/G30S (human). The assay is described as follows: SPR.
In assay [17] the target is CH106 (human). The assay is described as follows: SPR; BIAcore T200; […]) 5 min at 50 µL/min, 10 min dissociation; […]; global 1:1 Langmuir fit; […].
The target in assay [18] is CH103 (human). The assay is described as above.
The target in assay [19] is I3 (CH103 lineage intermediate) (human). The description is as above.
The target in assay [20] is I8 (CH103 lineage intermediate) (human). Described as above.
Assay [21] has as its target I4-S14P (human). The assay can be described thus: BLI; […]; mAb (20 ug/mL in PBS) […] (AHC) […], association 400 s, […]; 1:1 model; […].
Assay [22] deals with CH106 (human). Described as above.
Assay [23] concerns the target CH103 UCA-P14S (human). Described as above.
Assay [24] has as its target CH103 (human). Described as above.
Assay [25] addresses CH103 UCA-S30G (human). The assay is described as above.
Assay [26] concerns the target CH103 UCA (human). The description is as above.
Assay [27] has as its target CH103-S14P (human). The description is as above.
For assay [28], the target named is CH103 UCA-S30G/S31G (human). Described as above.
Assay [29] has as its target I4-S14P/G30S (human). Described as above.
Assay [30] concerns the target CH103-S14P/G30S (human). The assay is described as above.

The term Kd denotes the concentration at which binding is half-saturated. By koff is commonly meant the rate constant with which the complex falls apart. Higher therefore signals a short-lived complex. The term kon denotes a measure of how fast the partners come together. A low value points to slower complex formation.

Some results are limits rather than exact numbers.

Sequence of CH106 (human) (heavy, as listed by the source, chain 1 of 2): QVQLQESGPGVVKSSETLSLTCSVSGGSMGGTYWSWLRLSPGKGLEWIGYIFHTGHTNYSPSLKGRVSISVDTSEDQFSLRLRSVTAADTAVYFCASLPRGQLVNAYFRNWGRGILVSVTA
Sequence of CH106 (human) (light, as listed by the source, chain 2 of 2): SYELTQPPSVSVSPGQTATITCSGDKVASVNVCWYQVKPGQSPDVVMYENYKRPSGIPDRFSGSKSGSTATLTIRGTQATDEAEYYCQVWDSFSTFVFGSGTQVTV

As to C.CH505TF SOSIP.664.v4.1 (complex), the Kd is 5 nM in assay [1]; 1700 nM in assay [2]; 1800 nM in assay [3]; 800 nM in assay [4]; 16 nM in assay [5]; 1500 nM in assay [6]. Further, the Kd in assay [7] came to 160 nM; in assay [8], 150 nM.
CH103-S14P (antibody) returned an IC80 of neutralisation of the autologous CH505TF Env-pseudovirus, TZM-bl cells (Env on the virus, not the SOSIP trimer) in assay [9] of 12.8 µg/mL.
In the case of I4-S14P (antibody), in [9], the IC50 of neutralisation of the autologous CH505TF Env-pseudovirus, TZM-bl cells (Env on the virus, not the SOSIP trimer) came out at 14.8 µg/mL and the IC80 of neutralisation of the autologous CH505TF Env-pseudovirus, TZM-bl cells (Env on the virus, not the SOSIP trimer) is more than 50 µg/mL. Moreover, in [10], the equilibrium dissociation constant (Kd) stood at 40 nM, the koff came to 0.00053 s⁻¹ and the kon worked out at 13100 M⁻¹ s⁻¹.
In the case of B.63521 D11 gp120 (domain or fragment), the koff in assay [11] came out at 0.000229 s⁻¹; in assay [12], 0.0225 s⁻¹; in [13] it was 2e-05 s⁻¹; in [14], 0.113 s⁻¹; in assay [15] it was 2e-05 s⁻¹; in assay [16], 2.9e-05 s⁻¹. The association rate constant (kon) amounted to 16000 M⁻¹ s⁻¹ in assay [11]; 5300 M⁻¹ s⁻¹ in [12]; 15000 M⁻¹ s⁻¹ in assay [13]; 9100 M⁻¹ s⁻¹ in assay [15]; 8210 M⁻¹ s⁻¹ in [16]; 170 M⁻¹ s⁻¹ in assay [20]. In addition, the equilibrium dissociation constant (Kd) was 680000 nM in [14]; 2.1 nM in assay [15]; 4 nM in assay [16]; 14.2 nM in assay [17]; 1.1 nM in [18]; 4200 nM in assay [19]. In addition, in assay [19], the fold faster ka than I8 was more than 50 fold.
For the substance C.CH505TF.SOSIP.664.v4.1 (complex), the results for the Kd in [21] and in assay [27] were 109 nM and 20 nM, respectively. The koff amounted to 0.00027 s⁻¹ in assay [21]; 3.6e-06 s⁻¹ in [22]; 0.0015 s⁻¹ in [23]; 1.5e-05 s⁻¹ in [24]; 0.0015 s⁻¹ in [25]; 0.00168 s⁻¹ in assay [26]. The dissociation rate constant (koff) turned out to be 1.8e-05 s⁻¹ in assay [27], 0.0012 s⁻¹ in [28], 0.00034 s⁻¹ in [29] and 6.6e-05 s⁻¹ in assay [30]. Besides, the kon was found to be 2460 M⁻¹ s⁻¹ in assay [21]; 670 M⁻¹ s⁻¹ in [22]; 900 M⁻¹ s⁻¹ in assay [23]; 930 M⁻¹ s⁻¹ in [24]; 860 M⁻¹ s⁻¹ in assay [25]; 1100 M⁻¹ s⁻¹ in assay [26]. Further, the kon stood at 890 M⁻¹ s⁻¹ in assay [27], 1400 M⁻¹ s⁻¹ in assay [28], 2120 M⁻¹ s⁻¹ in [29] and 450 M⁻¹ s⁻¹ in assay [30].
CH103 (antibody) yielded an IC80 of neutralisation of the autologous CH505TF Env-pseudovirus, TZM-bl cells (Env on the virus, not the SOSIP trimer) in assay [9] of 6.4 µg/mL.
In the case of CH103-S14P/G30S (antibody), in assay [9], the IC80 of neutralisation of the autologous CH505TF Env-pseudovirus, TZM-bl cells (Env on the virus, not the SOSIP trimer) amounted to 15.5 µg/mL.
In assay [9], I4-S14P/G30S (antibody) came in with an IC50 of neutralisation of the autologous CH505TF Env-pseudovirus, TZM-bl cells (Env on the virus, not the SOSIP trimer) of 43.2 µg/mL and an IC80 of neutralisation of the autologous CH505TF Env-pseudovirus, TZM-bl cells (Env on the virus, not the SOSIP trimer) of more than 50 µg/mL. In assay [10], this substance came in with a Kd of 100 nM, an off-rate (koff) of 0.00101 s⁻¹ and an on-rate constant (kon) of 10000 M⁻¹ s⁻¹.
